Data as given in patent US20240200091A1, “USE OF PROTOPORPHYRINOGEN OXIDASE” (BEIJING DABEINONG BIOTECHNOLOGY CO., LTD., priority 2021, published 2024).

Experiments:
Format in all cases: in vivo
[1] = tested on: Arabidopsis thaliana T1 plants; test: sulfentrazone tolerance of transgenic Arabidopsis thaliana T1 plants (spray, grade of pesticide damage); conditions: 7 DAT, number of plants of 24 per genotype, grades
Procedure, shortened: (§1)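 Graded 0–3 by injured-to-total leaf area 7 days after spraying, with grades 0–1 rated highly resistant. Plants (24 per genotype, 18 days old) received water or 1× and 4× field rates (sulfentrazone 1× and 2×, 450/900 g ai/ha) of each herbicide.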

[2] = tested on: transgenic soybean plants; test: oxyfluorfen tolerance of transgenic soybean plants (spray, grade of pesticide damage); conditions: for The grade of pesticide damage/plant: grade 0 / The grade of pesticide damage/plant: grade 1 / The grade of pesticide damage/plant: grade 2 / The grade of pesticide damage/plant: grade 3: 7 DAT, number of plants of 16 per genotype, grades; for tolerance to oxyfluorfen: soybean
[3] = tested on: transgenic soybean plants; test: flumioxazin tolerance of transgenic soybean plants (spray, grade of pesticide damage); conditions: for The grade of pesticide damage/plant: grade 0 / The grade of pesticide damage/plant: grade 1 / The grade of pesticide damage/plant: grade 2 / The grade of pesticide damage/plant: grade 3: 7 DAT, number of plants of 16 per genotype, grades
[4] = tested on: Arabidopsis thaliana T1 plants; test: flumioxazin tolerance of transgenic Arabidopsis thaliana T1 plants (spray, grade of pesticide damage); conditions: 7 DAT, number of plants of 24 per genotype, grades
Procedure, shortened: as §1

[5] = tested on: Arabidopsis thaliana T1 plants; test: saflufenacil tolerance of transgenic Arabidopsis thaliana T1 plants (spray, grade of pesticide damage); conditions: 7 DAT, number of plants of 24 per genotype, grades
Procedure, shortened: as §1

[6] = tested on: transgenic soybean plants; test: saflufenacil tolerance of transgenic soybean plants (spray, grade of pesticide damage); design: key to damage levels rated at grade: grade 0 means that the growth status of plants is essentially consistent with those sprayed with the blank solvent (water); grade 1 means that the average of the damage levels of plants is less than 10%; grade 2 means that the average of the damage levels of plants is greater than 100%; grade 3 means that the average of the damage levels of plants is 100%; conditions: for The grade of pesticide damage/plant: grade 0 / The grade of pesticide damage/plant: grade 1 / The grade of pesticide damage/plant: grade 2 / The grade of pesticide damage/plant: grade 3: 7 DAT, number of plants of 16 per genotype, grades
[7] = tested on: Arabidopsis thaliana T1 plants; test: oxyfluorfen tolerance of transgenic Arabidopsis thaliana T1 plants (spray, grade of pesticide damage); conditions: 7 DAT, number of plants of 24 per genotype, grades
Procedure, shortened: as §1

B1: PPO1A: nucleotide sequence encoding microbial protoporphyrinogen oxidase PPO1 (SEQ ID NO:1), Arabidopsis thaliana/soybean common codon usage bias (nucleic acid)
DNA: ATGAAGGCTTTGGTACTCTACAGCACAAGAGACGGTCAGACACACGCGATCGCGTCGTACATTGCTAATTGCATGAAAGAGAAGTATGAGTGTGACGTTATTGATCTTCTTCATGCTCAGCATGTTACATTATCACGGTATGATAAGGTTCTTGTAGGAGCTTCTATACGATATGGACATTTCAATGCTGTGTTGGACAAATTTGTGAAGCAAAACATCCAACAACTAAACTCAATGCCTTCTGCTTTCTTTGCTGTTAATTTGACTGCCAGGAAACCTGAGAAACGTACTCCTCAGACCAATTCTTATGTTAGGAAGTTTCTTCTGGGGACACCATGGAAACCAGCAATGTGTGGCGTGTTTGCAGGAGCATTGAGGTATCCACGTTACAGATGGGTTGATAAAGTGATGATTCAGCTCATAATGAGAATGACTGGTGGTGAAACAGATACAAGCAAAGAAGTTGAGTATACTGATTGGGAACAAGTCAAAAAGTTCGCAGAAGATTTTGGAAAGCTAAGTTACAAGAAAACCCTCTGA
modifications: PPO1A Nucleotide Sequence
[1]; sulfentrazone 450 g ai/ha (1×)
  The grade of pesticide: grade 0: 24
  The grade of pesticide: grade 1: 0
  The grade of pesticide: grade 2: 0
  The grade of pesticide: grade 3: 0
[1]; sulfentrazone 900 g ai/ha (2×)
  The grade of pesticide: grade 0: 20
  The grade of pesticide: grade 1: 4
  The grade of pesticide: grade 2: 0
  The grade of pesticide: grade 3: 0
[2]; oxyfluorfen 360 g ai/ha (2×)
  The grade of pesticide damage/plant: grade 0: 16 plant
  The grade of pesticide damage/plant: grade 1: 0 plant
  The grade of pesticide damage/plant: grade 2: 0 plant
  The grade of pesticide damage/plant: grade 3: 0 plant
[2]; oxyfluorfen 720 g ai/ha (4×)
  The grade of pesticide damage/plant: grade 0: 16 plant
  The grade of pesticide damage/plant: grade 1: 0 plant
  The grade of pesticide damage/plant: grade 2: 0 plant
  The grade of pesticide damage/plant: grade 3: 0 plant
[2]; oxyfluorfen at four-fold field concentration (720 g ai/ha)
  tolerance to oxyfluorfen: high-resistant tolerance
[2]; oxyfluorfen at two-fold field concentration (360 g ai/ha)
  tolerance to oxyfluorfen: high-resistant tolerance
[3]; flumioxazin 120 g ai/ha (2×)
  The grade of pesticide damage/plant: grade 0: 16 plant
  The grade of pesticide damage/plant: grade 1: 0 plant
  The grade of pesticide damage/plant: grade 2: 0 plant
  The grade of pesticide damage/plant: grade 3: 0 plant
[3]; flumioxazin 240 g ai/ha (4×)
  The grade of pesticide damage/plant: grade 0: 16 plant
  The grade of pesticide damage/plant: grade 1: 0 plant
  The grade of pesticide damage/plant: grade 2: 0 plant
  The grade of pesticide damage/plant: grade 3: 0 plant
[3]; soybean, flumioxazin at different concentrations (120 and 240 g ai/ha)
  tolerance to flumioxazin: high-resistant tolerance
[4]; flumioxazin 60 g ai/ha (1×)
  The grade of pesticide damage/plant: grade 0: 24 plant
  The grade of pesticide damage/plant: grade 1: 0 plant
  The grade of pesticide damage/plant: grade 2: 0 plant
  The grade of pesticide damage/plant: grade 3: 0 plant
[4]; flumioxazin 240 g ai/ha (4×)
  The grade of pesticide damage/plant: grade 0: 23 plant
  The grade of pesticide damage/plant: grade 1: 1 plant
  The grade of pesticide damage/plant: grade 2: 0 plant
  The grade of pesticide damage/plant: grade 3: 0 plant
[5]; saflufenacil 25 g ai/ha (1×)
  The grade of pesticide damage/plant: grade 0: 24 plant
  The grade of pesticide damage/plant: grade 1: 0 plant
  The grade of pesticide damage/plant: grade 2: 0 plant
  The grade of pesticide damage/plant: grade 3: 0 plant
[5]; saflufenacil 100 g ai/ha (4×)
  The grade of pesticide damage/plant: grade 0: 4 plant
  The grade of pesticide damage/plant: grade 1: 20 plant
  The grade of pesticide damage/plant: grade 2: 0 plant
  The grade of pesticide damage/plant: grade 3: 0 plant
[6]; saflufenacil 50 g ai/ha (2×)
  The grade of pesticide damage/plant: grade 0: 16 plant
  The grade of pesticide damage/plant: grade 1: 0 plant
  The grade of pesticide damage/plant: grade 2: 0 plant
  The grade of pesticide damage/plant: grade 3: 0 plant
[6]; saflufenacil 100 g ai/ha (4×)
  The grade of pesticide damage/plant: grade 0: 16 plant
  The grade of pesticide damage/plant: grade 1: 0 plant
  The grade of pesticide damage/plant: grade 2: 0 plant
  The grade of pesticide damage/plant: grade 3: 0 plant
[6]; soybean, saflufenacil at four-fold field concentration (100 g ai/ha)
  tolerance to saflufenacil: high-resistant tolerance
[6]; soybean, saflufenacil at two-fold field concentration (50 g ai/ha)
  damage levels rated at grade: 0
[6]; soybean, saflufenacil, compared with the control vector and CK
  tolerance to saflufenacil: different extents of tolerance
[7]; oxyfluorfen 180 g ai/ha (1×)
  The grade of pesticide damage/plant: grade 0: 24 plant
  The grade of pesticide damage/plant: grade 1: 0 plant
  The grade of pesticide damage/plant: grade 2: 0 plant
  The grade of pesticide damage/plant: grade 3: 0 plant
[7]; oxyfluorfen 720 g ai/ha (4×)
  The grade of pesticide damage/plant: grade 0: 19 plant
  The grade of pesticide damage/plant: grade 1: 5 plant
  The grade of pesticide damage/plant: grade 2: 0 plant
  The grade of pesticide damage/plant: grade 3: 0 plant
